Blank lines part the entries; values can stand above or below the binder they belong to.
Legend:
[1] = molecular target: T1, myc-KRS T52D (active mutant) (human, UniProt Q15046 2-597); assay: Immunofluorescence on A549 cells transfected with Myc tagged KRS-T52D, fixed with paraformaldehyde
T1 construct: Active mutant whose N-terminal region is exposed on the cell membrane; also called KRS-T52D mutant; T52D-KRS
Description: After incubation for 24 h, the cells were incubated using serum-free media (RPMI 1640 media) at 37° C. for 1 h. Thereafter, the cells were treated with 10 μg/ml laminin (L2020; Sigma) and then incubated at 37° C. for 1 h.
The prepared samples were washed with PBS (4° C.), fixed by the treatment with 4% paraformaldehyde for 10 min, and then washed. The samples were blocked with CAS block for 10 min, and treated with the scFv and Myc antibodies for 2 h. Thereafter, the unbound antibodies were washed out, and incubated with secondary antibodies for 1 h in a dark room. DAPI staining was performed for 10 min before mounting.

[2] = molecular target: T2, KRS fragment composed of amino acid residues 1-200 in the N-terminus (human, UniProt Q15046 1-200); assay: Western blot on lysate of A549 cells transformed with the KRS fragment 1-200 (2), probed with the scFv
T2 construct: also called fragment 2; denoted by 2

[3] = molecular target: T3, human lysyl-tRNA synthetase (KRS), full-length (human, UniProt Q15046 1-597); assay: Western blot on lysate of A549 cells transformed with full-length KRS (F), probed with the scFv
T3 construct: also called native KRS; full-length KRS

[4] = molecular target: T4, KRS fragment with deletion of amino acids at positions 1-71 in the N-terminus (human, UniProt Q15046 72-597); assay: western blotting of lysate of transformed A549 cells
T4 construct: also called fragment 1; denoted by 1
Description: As described above, the scFv antibodies extracted from the periplasm were used to investigate using western blotting whether the scFv antibodies bound to the full-length KRS or respective KRS N-terminal fragments. Then, 30 μg of HCT116 cell lysate was electrophoresed through SDS PAGE, transferred onto PVDF membrane, and then blocked with 3% skim milk. Thereafter, the extracted scFv antibodies were added at 1.0 μg/μl, followed by incubation for 1 h. The unbound scFv antibodies were washed out, and for detection, the scFv binding with antigens were incubated with anti-HA secondary antibodies linked with horseradish peroxidase (HRP), and film sensitization was carried out using ECL reagent as a substrate in a dark room. The sensitized bands were compared with standard molecule markers to identify bands corresponding to sizes of the full-length KRS and the respective fragments.

[5] = molecular target: T5, KRS 1-207 aa (human, UniProt Q15046 1-207); assay: SPR Biacore 2000, KRS 1-207 immobilised on CM5, antibody 6.25-100 nM as analyte
T5 construct: also called KRS N-terminal region (SPR antigen)
Description: After KRS was immobilized on a sensor chip (CM5, GE healthcare, US), antibody proteins (6.25-100 nM), which were serially diluted with HES buffer solution (10 mM HEPES, pH 7.4, 150 mM NaCl, 3 mM EDTA, 0.005% surfactant P20), were allowed to flow at a rate of 30 μl/min for 3 min, and 1 M NaCl/20 mM NaOH was allowed to flow at a rate of 30 μl/min for 3 min, thereby inducing the dissociation of proteins bound to the antigen. Mock IgG was used as control. Specific experiment conditions are as follows:
The affinity was obtained from the kinetic rate constants (ka and kd) and equilibrium dissociation constants (KD) by using BIA evaluation ver. 3.2 software.

T5 sequence (Q15046 1-207): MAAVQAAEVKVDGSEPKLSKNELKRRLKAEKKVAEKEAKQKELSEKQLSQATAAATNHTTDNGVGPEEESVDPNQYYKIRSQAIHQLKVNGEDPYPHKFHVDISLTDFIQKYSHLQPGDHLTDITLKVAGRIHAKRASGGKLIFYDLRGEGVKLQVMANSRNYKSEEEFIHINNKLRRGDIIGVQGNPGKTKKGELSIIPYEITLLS
T3 sequence (Q15046 whole entry): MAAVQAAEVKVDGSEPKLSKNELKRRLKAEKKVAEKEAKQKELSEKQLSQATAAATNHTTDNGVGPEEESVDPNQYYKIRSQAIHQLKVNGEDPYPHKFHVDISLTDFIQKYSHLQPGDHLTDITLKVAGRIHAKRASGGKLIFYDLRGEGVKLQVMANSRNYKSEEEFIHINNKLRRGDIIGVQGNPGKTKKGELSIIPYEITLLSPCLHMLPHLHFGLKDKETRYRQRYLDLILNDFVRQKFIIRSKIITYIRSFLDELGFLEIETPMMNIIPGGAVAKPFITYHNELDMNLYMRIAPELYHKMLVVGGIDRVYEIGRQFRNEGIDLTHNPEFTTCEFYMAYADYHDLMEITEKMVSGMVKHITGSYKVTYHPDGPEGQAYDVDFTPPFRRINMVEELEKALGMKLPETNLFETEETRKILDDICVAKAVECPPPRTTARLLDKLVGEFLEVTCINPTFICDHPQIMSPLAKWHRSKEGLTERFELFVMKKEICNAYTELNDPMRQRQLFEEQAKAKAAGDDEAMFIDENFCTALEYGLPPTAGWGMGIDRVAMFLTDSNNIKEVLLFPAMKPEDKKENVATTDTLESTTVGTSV
T4 sequence (Q15046 72-597, stated change not applied): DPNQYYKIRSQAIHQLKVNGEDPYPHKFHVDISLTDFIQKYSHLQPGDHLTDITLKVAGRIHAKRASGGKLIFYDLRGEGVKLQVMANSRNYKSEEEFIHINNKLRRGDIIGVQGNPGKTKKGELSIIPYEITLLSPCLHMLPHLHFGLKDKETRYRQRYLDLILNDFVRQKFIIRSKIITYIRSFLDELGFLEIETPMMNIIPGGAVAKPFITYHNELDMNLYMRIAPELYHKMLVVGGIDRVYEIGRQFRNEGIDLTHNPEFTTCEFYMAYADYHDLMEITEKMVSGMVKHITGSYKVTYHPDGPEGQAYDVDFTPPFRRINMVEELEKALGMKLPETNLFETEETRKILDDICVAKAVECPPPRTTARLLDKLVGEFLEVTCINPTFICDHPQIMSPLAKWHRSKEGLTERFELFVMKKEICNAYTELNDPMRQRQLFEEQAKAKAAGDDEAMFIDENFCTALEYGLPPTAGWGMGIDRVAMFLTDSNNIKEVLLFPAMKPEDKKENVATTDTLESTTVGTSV
T2 sequence (Q15046 1-200): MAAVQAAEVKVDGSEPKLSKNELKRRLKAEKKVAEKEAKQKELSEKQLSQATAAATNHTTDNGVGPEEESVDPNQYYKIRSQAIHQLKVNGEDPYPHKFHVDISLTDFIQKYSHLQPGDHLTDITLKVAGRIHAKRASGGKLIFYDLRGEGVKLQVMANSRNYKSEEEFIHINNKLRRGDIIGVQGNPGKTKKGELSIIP
T1 sequence (Q15046 2-597 T52D): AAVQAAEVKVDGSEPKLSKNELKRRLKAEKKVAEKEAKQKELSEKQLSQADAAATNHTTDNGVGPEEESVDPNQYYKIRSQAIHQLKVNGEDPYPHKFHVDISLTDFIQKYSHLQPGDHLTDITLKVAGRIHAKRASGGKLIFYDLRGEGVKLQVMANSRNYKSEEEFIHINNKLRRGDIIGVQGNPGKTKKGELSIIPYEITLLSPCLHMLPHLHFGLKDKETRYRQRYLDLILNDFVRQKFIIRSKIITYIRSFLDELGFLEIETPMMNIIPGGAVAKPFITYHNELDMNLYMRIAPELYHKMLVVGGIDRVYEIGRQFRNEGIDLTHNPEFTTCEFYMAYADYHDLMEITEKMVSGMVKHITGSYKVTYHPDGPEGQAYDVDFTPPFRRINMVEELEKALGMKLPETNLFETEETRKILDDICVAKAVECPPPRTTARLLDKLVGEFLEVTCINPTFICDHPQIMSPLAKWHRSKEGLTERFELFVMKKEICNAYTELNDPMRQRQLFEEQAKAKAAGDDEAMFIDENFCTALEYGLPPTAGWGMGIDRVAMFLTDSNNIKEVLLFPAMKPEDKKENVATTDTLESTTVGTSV

binding result [1]: binds
binding result [2]: binds
binding result [3]: binds
binding result [4]: no binding
B1: N5 scFv (scFv)
scFv: EVQLLESGGGLVQPGGSLRLSCAASGFTFSDYAMSWVRQAPGKGLEWVSWIYSGSGNKYYADSVKGRFTISRDNSKNTLYLQMNSLRAEDTAVYYCARMGLDFDYWGQGTLVTVSSGGGGSGGGGSGGGGSQSVLTQPPSASGTPGQRVTISCTGSSSNIGNNYVSWYQQLPGTAPKLLIYDDNQRPSGVPDRFSGSKSGTSASLAISGLRSEDEADYYCGTWDDSLSAYVFGGGTKLTVL
notes: HA-tagged scFv purified on Ni-NTA; also called scFv N5 clone

Kd [5]: 1.05 nM
koff [5]: 0.00328 s⁻¹
kon [5]: 3.13e+06 M⁻¹ s⁻¹
B2: N5 IgG (antibody, V domains shown)
VH: EVQLLESGGGLVQPGGSLRLSCAASGFTFSDYAMSWVRQAPGKGLEWVSWIYSGSGNKYYADSVKGRFTISRDNSKNTLYLQMNSLRAEDTAVYYCARMGLDFDYWGQGTLVTVSS
VL: QSVLTQPPSASGTPGQRVTISCTGSSSNIGNNYVSWYQQLPGTAPKLLIYDDNQRPSGVPDRFSGSKSGTSASLAISGLRSEDEADYYCGTWDDSLSAYVFGGGTKLTVL
notes: IgG made from the scFv variable regions
